Assay results: patent publication US20060275823A1

Target: GG (GST-ICS linker-GFP model substrate for ICE) [GST: P08515]
Assay: cell-based or functional assay

B1: LEPB (peptide)
peptide: KARKEAELAAATAEQ
Q: With B1 as the binder, how does the IC50 of inhibition of the cleavage of GG by ICE read?
A: The IC50 of inhibition of the cleavage of GG by ICE was 50 to 100 µM.
